According to paper PMC8395316 (2021):

Target: Spike-RBD RBD (Severe acute respiratory syndrome …, UniProt P0DTC2)
Experiment: ELISA

B1: Platelet Factor 4 (protein)
chain: SQVRPRHITSLEVIKAGPHCPTAQLIATLKNGRKICLDLQAPLYKKIIKKLLES
Kd: ~180 nM
